{"source": "paper PMC6761861", "about": "(Chemical Science, 2019)", "key": {"[1]": {"target": "TMD5 (coumarin-labelled) (Epstein-Barr virus, UniProt P03230)", "test": "FRET assay", "format": "binding"}, "[2]": {"system": "TMD5/TMD5 interaction (TMD5–ToxR)", "test": "Dominant-negative ToxR assay in bacterial membranes", "format": "cell-based, Epstein–Barr virus", "conditions": "co-expressed as ToxR* fusion with TMD5–ToxR in E. coli FHK12; result in words"}, "[3]": {"system": "NF-κB activity (LMP-1) in EBV positive B721 cells", "conditions": "read-out: IC50, inhibition of B721 cell NF-κB activity; cited from earlier work"}, "[4]": {"target": "coumarin-labelled LMP-1 transmembrane domain 5 (TMD5) peptide (Epstein-Barr virus)", "test": "FRET or BRET"}, "[5]": {"target": "coumarin-labelled LMP-1 transmembrane domain 5 (TMD5) peptide (Epstein-Barr virus)", "test": "FRET or BRET", "remark": "listed apart in the source"}, "[6]": {"target": "coumarin-labelled LMP-1 transmembrane domain 5 (TMD5) peptide (Epstein-Barr virus)", "test": "other fluorescence titration"}}, "note": "Where two headings read alike, the source gives them in different places. No end group written: not given here.", "data": [{"molecule": "KKKK-VFLWLWLIWIFIDWKLWLLYWLL-KKKK [anti-TMD5 scramble]", "values": [{"measurement": "quenching of TMD5-coumarin fluorescence and FRET signal compared to anti-TMD5", "setting": "[1]; 1.0 mM C14 betaine micelles, 20 mM HEPES, pH 7.4, result in words", "result": "much less quenching of TMD5-coumarin fluorescence and weaker FRET signal from FITC emission"}, {"measurement": "effect on TMD5 Miller unit", "setting": "[2]", "result": "did not inhibit the TMD5 Miller unit"}]}, {"molecule": "KKKKWWKLWYFLVWFLDLIILILLLWWKKKK [anti-TMD5]", "values": [{"measurement": "Kd", "setting": "[1]", "result": "0.04 ± 0.0067", "unit": "µM"}]}, {"molecule": "N=C(N)c1ccc(C=Cc2ccc(C(=N)N)cc2O)cc1", "note": "[NSC259242]", "values": [{"measurement": "IC50", "setting": "[3]", "result": "29.6 ± 6.6", "unit": "µM"}]}, {"molecule": "WWKLWYFLVWFLDLIILILLLWW (designed binder, also: FITC label, position not given here)", "note": "[FITC-tagged anti-TMD5 peptide]", "values": [{"measurement": "Kd", "setting": "[4]", "result": 40, "unit": "µM"}, {"measurement": "stoichiometry N", "setting": "[4]", "result": 0.44}, {"measurement": "Kd", "setting": "[5]", "result": 0.0678, "unit": "µM"}, {"measurement": "stoichiometry N", "setting": "[5]", "result": 0.53}]}, {"molecule": "WWKLWYFLVWFLDLIILILLLWW (designed binder)", "note": "[anti-TMD5 peptide (unlabelled)]", "values": [{"measurement": "EC50", "setting": "[6]", "result": 3.3, "unit": "µM"}]}]}
